{"source": "patent US20200317779A1", "target": "CD3 on human T cells (H9 cells, ATCC HTB-176) (human)", "sequence (P07766 23-207, chain 1 of 3)": "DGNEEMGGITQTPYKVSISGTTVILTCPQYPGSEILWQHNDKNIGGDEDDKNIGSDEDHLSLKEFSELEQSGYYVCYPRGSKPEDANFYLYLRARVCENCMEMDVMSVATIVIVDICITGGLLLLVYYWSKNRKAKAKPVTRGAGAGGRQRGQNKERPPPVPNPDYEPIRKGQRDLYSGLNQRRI", "sequence (P04234 22-171, chain 2 of 3, further chain)": "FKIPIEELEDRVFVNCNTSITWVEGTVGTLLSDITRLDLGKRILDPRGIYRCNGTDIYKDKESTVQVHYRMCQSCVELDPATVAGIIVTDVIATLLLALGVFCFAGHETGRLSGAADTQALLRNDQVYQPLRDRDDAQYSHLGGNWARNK", "sequence (P09693 23-182, chain 3 of 3, further chain)": "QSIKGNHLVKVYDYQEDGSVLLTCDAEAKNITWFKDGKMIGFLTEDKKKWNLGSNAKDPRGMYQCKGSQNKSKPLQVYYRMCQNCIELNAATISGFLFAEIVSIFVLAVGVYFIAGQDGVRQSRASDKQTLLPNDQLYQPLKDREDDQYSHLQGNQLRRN", "test": "flow cytometry on H9 cells, PE anti-human IgG alone (no primary antibody), negative control", "data": [{"substance": "a-HuIgG PE (antibody)", "values": [{"measurement": "Mean : PE-A", "result": 138}]}]}
